# Molecular target: Gorilla bocavirus 1 (GBoV1) VP3, assembled as virus-like particles (VP3-only capsids) (Gorilla bocavirus 1)
# Assay: cryo-EM structure; purified GBoV1 VLPs (wild-type and VP3-only) in 1x PBS vitrified on holey carbon grids; Titan Krios 300 kV; cisTEM reconstruction with imposed icosahedral symmetry; 2.76 Å
substance,measurement,value
"Gorilla bocavirus 1 (GBoV1) VP3, assembled as virus-like particles (VP3-only capsids) (natural protein)",stoichiometry N,60

# From article PMC7924616
